Reference: IntAct's records for PubMed 21139564

B1: Eukaryotic initiation factor 4F subunit p150 (Saccharomyces cerevisiae), P39935 (parent)
chain: MTDETAHPTQSASKQESAALKQTGDDQQESQQQRGYTNYNNGSNYTQKKPYNSNRPHQQRGGKFGPNRYNNRGNYNGGGSFRGGHMGANSSNVPWTGYYNNYPVYYQPQQMAAAGSAPANPIPVEEKSPVPTKIEITTKSGEHLDLKEQHKAKLQSQERSTVSPQPESKLKETSDSTSTSTPTPTPSTNDSKASSEENISEAEKTRRNFIEQVKLRKAALEKKRKEQLEGSSGNNNIPMKTTPENVEEKGSDKPEVTEKTKPAEEKSAEPEVKQETPAEEGEQGEKGQIKEESTPKVLTFAERLKLKKQQKEREEKTEGKENKEVPVQEETKSAIESAPVPPSEQVKEETEVAETEQSNIDESATTPAIPTKSDEAEAEVEAEAGDAGTKIGLEAEIETTTDETDDGTNTVSHILNVLKDATPIEDVFSFNYPEGIEGPDIKYKKEHVKYTYGPTFLLQFKDKLNVKADAEWVQSTASKIVIPPGMGRGNRSRDSGRFGNNSSRGHDFRNTSVRNMDDRANSRTSSKRRSKRMNDDRRSNRSYTSRRDRERGSYRNEEKREDDKPKEEVAPLVPSANRWVPKFKSKKTEKKLAPDGKTELLDKDEVERKMKSLLNKLTLEMFDAISSEILAIANISVWETNGETLKAVIEQIFLKACDEPHWSSMYAQLCGKVVKELNPDITDETNEGKTGPKLVLHYLVARCHAEFDKGWTDKLPTNEDGTPLEPEMMSEEYYAAASAKRRGLGLVRFIGFLYRLNLLTGKMMFECFRRLMKDLTDSPSEETLESVVELLNTVGEQFETDSFRTGQATLEGSQLLDSLFGILDNIIQTAKISSRIKFKLIDIKELRHDKNWNSDKKDNGPKTIQQIHEEEERQRQLKNNSRSNSRRTNNSSNRHSFRRDAPPASKDSFITTRTYSQRNSQRAPPPKEEPAAPTSTATNMFSALMGESDDEE
partner: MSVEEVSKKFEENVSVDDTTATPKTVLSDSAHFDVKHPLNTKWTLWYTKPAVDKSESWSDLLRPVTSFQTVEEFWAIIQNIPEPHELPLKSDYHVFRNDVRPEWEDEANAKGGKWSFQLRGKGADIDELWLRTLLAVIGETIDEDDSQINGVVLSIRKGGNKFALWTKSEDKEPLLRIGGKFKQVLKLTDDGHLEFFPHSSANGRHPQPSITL

Variants of: B1
Details: with if4e_yeast CDC33, P07260

Row | Variant | effect of a mutation on the interaction
1 | V213A;K214A;L215A;R216A;L457A;L458A | decreasing interaction strength
2 | L457A;L458A | decreasing interaction
